Experimental data from article PMC7112944 (Science Advances, 2020).

Experiments:
[1] = molecular target: T1, N_(460–525) (measles virus, UniProt P04851 460-525); test: ITC
T1 sequence (looked up): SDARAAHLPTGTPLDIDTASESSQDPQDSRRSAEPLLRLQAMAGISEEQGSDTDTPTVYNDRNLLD

[2] = molecular target: T1, N_(460–525); test: ITC + NMR titration

B1: Phosphoprotein XD domain (PXD), P_(457–507) (domain or fragment, measles virus, UniProt P03422 457-507, looked up)
chain: GPASRSVIRSIIKSSRLEEDRKRYLMTLLDDIKGANDLAKFHQMLMKIIMK
dH [1]: -10.46 ± 0.0465 kcal/mol
stoichiometry N [1]: 0.927 sites
Kd [2]: ~5 µM
